Data taken from patent US20030166036.

What was measured:
[1] = target: proPSA (precursor, zymogen form of PSA), recombinant, P07288
[2] = target: prostate specific antigen (PSA), mature form
Chain of prostate specific antigen (PSA), mature form (chain, as listed by the source): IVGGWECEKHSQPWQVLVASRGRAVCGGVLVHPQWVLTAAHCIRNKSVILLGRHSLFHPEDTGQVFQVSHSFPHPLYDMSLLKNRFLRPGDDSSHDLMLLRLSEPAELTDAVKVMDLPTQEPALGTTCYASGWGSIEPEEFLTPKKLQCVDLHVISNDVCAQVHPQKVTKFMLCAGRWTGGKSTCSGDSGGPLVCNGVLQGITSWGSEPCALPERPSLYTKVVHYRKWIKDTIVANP

Chain of proPSA (precursor, zymogen form of PSA), recombinant, P07288 (P07288 18-261): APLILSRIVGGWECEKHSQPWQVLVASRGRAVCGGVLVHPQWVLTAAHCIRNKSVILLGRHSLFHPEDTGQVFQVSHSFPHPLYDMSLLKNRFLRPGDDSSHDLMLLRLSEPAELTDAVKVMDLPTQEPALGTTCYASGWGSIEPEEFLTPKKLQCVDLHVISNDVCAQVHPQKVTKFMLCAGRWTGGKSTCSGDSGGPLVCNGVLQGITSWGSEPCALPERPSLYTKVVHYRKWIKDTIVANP

B1: lysyl endopeptidase C (Wako Chemicals USA) (protein)
chain: GVSGSCNIDVVCPEGDGRRDIIRAVGAYSKSGTLACTGSLVNNTANDRKMYFLTAHHCGMGTASTAASIVVYWNYQNSTCRAPNTPASGANGDGSMSQTQSGSTVKATYATSDFTLLELNNAANPAFNLFWAGWDRRDQNYPGAIAIHHPNVAEKRISNSTSPTSFVAWGGGAGTTHLNVQWQPSGGVTEPGSSGSPIYSPEKRVLGQLHGGPSSCSATGTNRSDQYGRVFTSWTGGGAAASRLSDWLDPASTGAQFIDGLDSGGGTP
- initial rate of cleavage of the Lys182 in pPSA [1]: 8% per minute
- rate of cleavage at Lys145 in pPSA [1]: about 0.6% per minute
- initial rate of cleavage at Lys182 [2]: 12% per minute
- percent of PSA cleaved at Lys182 after 30 minutes of incubation [2]: 100% of the PSA had been cleaved at Lys182
- rate of cleavage at Lys145 [2]: 0.3% per minute
- relative rate of cleavage, Lys182 against Lys145 [2]: Lys182 is cleaved approximately 30 times more rapidly than Lys145 by LysC
